In article PMC11256085:

Target: EnfB, ThiF-like adenylyltransferase (TLAT) (Enterococcus faecium strain FDAARGOS_397 (methods); E. faecalis FDAARGOS_397 (results))

EnfA with Trp18 substituted by Ala (peptide)
conversion of the EnfA variant by EnfB (in vitro enzyme assay, LC-MS): 2.1%
